Results from US6368790 (UNIVERSITY OF TENNESSEE RESEARCH, dated 2002).

T1: Rb1 tumor suppressor protein (human, UniProt P06400 2-928)
T1 construct: Native protein from K562 lysate; also called pRb1; hypophosphorylated form of Rb1
T1 sequence (looked up): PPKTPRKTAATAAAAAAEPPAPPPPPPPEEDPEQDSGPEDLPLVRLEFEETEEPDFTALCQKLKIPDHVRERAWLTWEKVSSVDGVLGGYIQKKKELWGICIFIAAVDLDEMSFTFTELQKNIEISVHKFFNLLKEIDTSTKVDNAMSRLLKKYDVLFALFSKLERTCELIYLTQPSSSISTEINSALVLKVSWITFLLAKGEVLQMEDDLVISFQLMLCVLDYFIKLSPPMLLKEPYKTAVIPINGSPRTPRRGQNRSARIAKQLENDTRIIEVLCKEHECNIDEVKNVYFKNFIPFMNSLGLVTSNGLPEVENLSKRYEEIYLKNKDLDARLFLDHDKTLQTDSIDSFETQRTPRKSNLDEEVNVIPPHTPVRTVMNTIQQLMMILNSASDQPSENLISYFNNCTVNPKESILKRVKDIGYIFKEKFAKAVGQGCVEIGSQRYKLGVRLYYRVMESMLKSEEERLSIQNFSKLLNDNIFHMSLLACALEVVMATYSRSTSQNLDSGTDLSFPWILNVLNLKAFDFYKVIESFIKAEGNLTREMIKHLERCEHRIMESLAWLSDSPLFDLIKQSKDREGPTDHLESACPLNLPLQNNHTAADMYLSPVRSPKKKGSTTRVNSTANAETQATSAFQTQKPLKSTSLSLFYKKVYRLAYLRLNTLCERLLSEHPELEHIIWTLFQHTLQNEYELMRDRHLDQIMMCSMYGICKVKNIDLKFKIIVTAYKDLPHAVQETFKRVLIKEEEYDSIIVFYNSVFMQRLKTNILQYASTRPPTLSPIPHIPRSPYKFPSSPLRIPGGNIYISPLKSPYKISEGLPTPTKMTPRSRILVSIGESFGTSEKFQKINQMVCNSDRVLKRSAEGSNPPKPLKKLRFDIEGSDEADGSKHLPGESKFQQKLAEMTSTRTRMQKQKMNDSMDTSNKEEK

B1: GST-P2P (494-688) fusion protein (other, not shown: a dimerising Fc or GST)
chain: AQHIHALTLSPSAAHTLDLLHDHPHPPEEAEARSAMIVHMPDLMDIAHARSRSPPYRRYRSRSRSPPEFRGQSPTKRNVPREEKEREYFNRYREVPPPYDIKAYYGRSVDFRDPFEKERYREWERKYREWYEKYYKGYAVGAQPRPSANREDFSPERLLPLNIRNSPFTRGRREDYAAGQSHRNRNLGGNYPEKL
notes: also called GST-P2P (484-688)
B2: GST-P2P (1-332) fusion protein (other, not shown: a dimerising Fc or GST)
chain: MMEVKDPNMKGAMLTNTGKYAIPTIDAEAYAIGKKEKPPFLPEEPSSSSEEDDPIPAELLCLICKDIMTDAVVIPCCGNSSCDECIRTTLLESDKHTCPTCHQNDVSPDALIANKFLRQAVNNFKNETGYTKRLRKQLPPFLFLVPPPRPLSQRNLQPRSRSPILRQQDPVVFRYTVSPTCSDTKTAGSCSDSGTLSRLPAPSISSLTSNQSSLAPPVSGNPSSAPAPVPDITATVSISVHSEKSDGPFRDSDNKLLPAAALTSEHSKGASSIAITALMEEKGVPGTSPWNSIFVGQSLLHGQLIPTTGPVRINAARPGGGRPGWEHSNKLG
B3: GST-P2P (918-1095) fusion protein (other, not shown: a dimerising Fc or GST)
chain: RPRSLRKINYLIAREKNEREKRKKSVDKDFESSSMKISKVEGTEIVKPSPKRKMEGDVEKLERTPEKDKIASSTTPAKKIKLNRETGKKIGNAENASTTKEPSEKLESTSSKIKQEKVKGKAKRKVAGSEGSSSTLVDYTSTSSTGGSPVRKSEEKTDTKRTVIKTMEEYNNDNTAPA

Molecular target: T1, Rb1 tumor suppressor protein
Test: GST pull-down from K562 lysate, Western blot with anti-Rb1
Description: As precipitation controls, aliquots of the K562 lysate were immunoprecipitated with anti-Rb1 antibody IF8 or normal rabbit sera. Bound proteins were separated by electrophoresis in a 7% SDS-polyacrylamide gel and transferred to a nitrocellulose membrane. An aliquot of the K-562 crude lysate was included as a positive control for Western analysis. Proteins were visualized by probing the blot with anti-Rb1 antibodies IF-8 or C15. […] Bound proteins were separated by electrophoresis in a 7% SDS-polyacrylamide gel and transferred to a nitrocellulose membrane. Proteins were visualized by probing the blot with anti-Rb1 antibodies IF8 or C15.
Glutathione S-transferase (GST)-P2P fusion proteins were expressed and recovered on glutathione-sepharose beads as described above. Whole-cell lysates of K562 cells (1 ×10^7 cells/sample) were rocked with the beads for 1 hour at 4° C. and then washed five times with NETN buffer. The beads were then boiled in 1× SDS loading buffer and the proteins separated on SDS-polyacrylamide gels and transferred to nitrocellulose membranes. Competition experiments were performed by adding an excess of the 6X-His E1a fusion protein to the cellular lysates prior to the addition of the GST-P2P fusion proteins. The Rb1 protein was visualized by immunoblotting using anti-Rb1 antibodies IF8 or C15 (Santa Cruz Biotechnology, Santa Cruz, Calif.). These antibodies were also used to immunoprecipitate native Rb1 from the cellular lysates to serve as a positive control following the manufacturers' protocol.

Binder	binding result
B1	no binding
B2	no binding
B3	no binding
